{
  "source": "patent US20210139554A1",
  "about": "(published 2021)",
  "binders": {"B1": {"name": "26H7 (antibody, V domains shown)", "VH": "EVQLVQSGAEVKKPGESLKISCKGSGYRFTNYWIGWVRQMPGKGLEWMGIIYPGDSDTKYSPSFQGQVTISADKSISTAYLQWSSLKASDTAMYYCARHGGYSGRSYYYGMDVWGQGTAVTVSS", "VL": "not shown"}, "B2": {"name": "2C3 (antibody, V domains shown)", "VH": "EVQLVQSGAEVKKPGESLKISCKGSGYRFTSYWIGWVRQMPGKGLEWMGIIYPGDSDTRYSPSFQGQVTISADKSISAAYLQWSSLKASDTAMYYCARQQVAGMLDYWGQGTLVTVSS", "VL": "EIVLTQSPGTLSLSPGERATLSCRASQSFSSSYLVWYQQKPGQAPRLLIYGASSRATGIPDRFGGSGSGTDFTLTISRLEPEDFAVYYCQQYGSSPLTFGGGTKVEIK"}},
  "key": {"wild-type human IL-2": {"molecular_target": "T1, wild-type human IL-2 (human, UniProt P60568 21-153)", "T1 construct": "The construct used in ELISA and BIACORE is not described; also called hIL-2; WT IL-2", "T1 sequence (P60568 21-153 limits assumed)": "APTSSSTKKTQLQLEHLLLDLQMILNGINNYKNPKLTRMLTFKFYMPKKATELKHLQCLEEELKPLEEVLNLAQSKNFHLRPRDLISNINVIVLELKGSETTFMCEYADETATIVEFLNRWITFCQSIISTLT", "test": "BIACORE"}, "cynomolgus monkey IL-2": {"molecular_target": "T2, cynomolgus monkey IL-2 (cynomolgus monkey, UniProt Q29615 21-154, limits assumed)", "T2 construct": "also called cyno IL-2", "T2 sequence (Q29615 21-154 limits assumed)": "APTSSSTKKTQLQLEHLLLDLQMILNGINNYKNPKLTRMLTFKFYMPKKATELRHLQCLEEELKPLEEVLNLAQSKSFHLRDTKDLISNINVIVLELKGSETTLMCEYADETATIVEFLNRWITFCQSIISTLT", "test": "BIACORE"}},
  "data": [
    {"binder": "B1", "values": [
      {"measurement": "Kd", "setting": "wild-type human IL-2", "result": "~1.3", "unit": "nM"}
    ]},
    {"binder": "B2", "values": [
      {"measurement": "Kd", "setting": "cynomolgus monkey IL-2", "result": "~1.2", "unit": "nM"}
    ]}
  ]
}
